Test results: PMC12316933 (2025)

Key:
Assay in all cases: BLI
[1] = biological target: IN11 N2 (recombinant N2 neuraminidase head of H3N2 A/Indiana/08/2011) (Influenza A virus H3N2 A/Indiana/08/2011)
[2] = biological target: T1, PT09 N2 (recombinant N2 neuraminidase head of H3N2 A/Perth/16/2009) (Influenza A virus H3N2 A/Perth/16/2009)
T1 chain: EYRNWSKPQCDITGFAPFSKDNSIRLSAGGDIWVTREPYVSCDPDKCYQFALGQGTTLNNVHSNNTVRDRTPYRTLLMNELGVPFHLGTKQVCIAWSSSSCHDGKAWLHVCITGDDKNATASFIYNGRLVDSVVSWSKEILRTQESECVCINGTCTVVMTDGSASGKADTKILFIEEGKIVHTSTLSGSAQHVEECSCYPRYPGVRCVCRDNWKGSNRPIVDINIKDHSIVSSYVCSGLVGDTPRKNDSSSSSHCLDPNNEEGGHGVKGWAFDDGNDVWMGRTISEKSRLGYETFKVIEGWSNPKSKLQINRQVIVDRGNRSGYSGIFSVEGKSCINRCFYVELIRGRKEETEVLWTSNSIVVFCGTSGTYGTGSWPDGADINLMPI

[3] = biological target: CO17 B NA (recombinant neuraminidase head of B/Colorado/06/2017, B/Victoria-lineage) (Influenza B virus B/Colorado/06/2017)

B1: DA03E17 IgG (human monoclonal antibody) (antibody, V domains shown)
VH: EVQLVESGPGLVKPSQTLSLTCTVSGGSFSSGGYLWSWVRQHPGKGLEWIGYILYSGSPYYNPSLESRATISLDTSKNQFSLRLISVTAADAAMYYCARVDGSGNTDRYYFYGMDVWGQGTMVTVSS
VL: DIQMTQSPSSVSASVGDRVTITCRASRGIGDWLAWYQQKPGKAPKLLIYAASSLQRGVPSRFSGSGSGTDFTLTISSLQPDDFATYYCQQADGWEVWTFGQGTKVDVK
[1]
  Kd: < 0.001 nM
[2]
  Kd: < 0.001 nM
[3]
  Kd: 0.969 nM

B2: DA03E17 Fab (Fab, V domains shown)
VH: B1 VH
VL: B1 VL
[1]
  Kd: 4.53 nM
[2]
  Kd: 31 nM
[3]
  Kd: 913 nM
